Source: patent US5710244A, “Derivatized calcitonins” (priority 1993, dated 1998)
Numbered stars: 1 amine (or outer) side, 2 acyl side, 3 side chain; on linkers, the order of the positions; unused ones are H or OH. Bridge positions count the residues as written; N and C are the ends. * marks the point of attachment. X1 = 2,2'‑bipyridine‑4,4'‑dicarboxylic acid, O=C(O)c1ccnc(-c2cc(C(=O)*)ccn2)c1; X2 = 2,2'‑bipyridine‑5,5'‑dicarboxylic acid, O=C(O)c1ccc(-c2ccc(C(=O)*)cn2)nc1; Biphenyldicarbonyl(4,4') = O=C(c1ccc(-c2ccc(C(=O)[*:2])cc2)cc1)[*:1]; Pyrazinecarbonyl = O=C(c1cnccn1)*; Nicotinoyl = O=C(c1cccnc1)*

T1: recombinant human calcitonin receptor (human, UniProt P30988)
T1 sequence: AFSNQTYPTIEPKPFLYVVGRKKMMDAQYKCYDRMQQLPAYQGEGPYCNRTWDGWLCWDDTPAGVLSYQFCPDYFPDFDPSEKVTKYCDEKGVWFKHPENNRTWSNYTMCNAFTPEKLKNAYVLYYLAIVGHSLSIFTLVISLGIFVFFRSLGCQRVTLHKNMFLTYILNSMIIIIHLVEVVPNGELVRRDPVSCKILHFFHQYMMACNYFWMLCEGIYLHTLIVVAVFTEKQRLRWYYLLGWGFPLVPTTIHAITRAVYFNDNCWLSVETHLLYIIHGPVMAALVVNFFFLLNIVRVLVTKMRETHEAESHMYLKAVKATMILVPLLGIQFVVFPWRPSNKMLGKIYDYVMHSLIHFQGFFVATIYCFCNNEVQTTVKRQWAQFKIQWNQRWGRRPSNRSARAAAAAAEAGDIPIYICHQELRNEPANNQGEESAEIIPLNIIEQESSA


Key:
[1] = test system: endogenous hamster calcitonin receptor; assay: CRE-linked luciferase (cyclic AMP) induction in BHK cells expressing endogenous hamster calcitonin receptor; assay type: cell-based; conditions: for % SCT EC50, Hamster CT receptor: EC50 as % of salmon calcitonin (SCT) EC50, CRE-luciferase, BHK cells, 4 h induction
Procedure: A BHK cell line expressing the endogenous hamster calcitonin receptor was transfected with plasmid KZ10-20-48 to provide the CRE-inducible luciferase receptor described above. The transfected cells were cultured in selective growth medium containing both 500 μg/mL G418-neomycin and 250 nM methotrexate.
Cells expressing the calcitonin receptor were assayed in triplicate for the induction of the CRE-linked luciferase response to salmon calcitonin (SCT) and derivatized calcitonins at concentrations ranging from 10^-13 M to 10^-6 M. MICROLITE flat bottom tissue culture plates (Baxter Scientific Products, Chicago, Ill.) were set up such that each well contained 2×10^4 cells in 100 μl of selection media, and the cells were grown overnight. SCT and GF43 were prepared at 2X the final assay concentration to give 10^-13 to 10^-6 M in growth medium. Induction was initiated by removing old medium from the wells and adding 100 μl of fresh growth medium and 100 μl of either 2X solution in triplicate sample wells. Uninduced luciferase levels were determined in triplicate wells to which 100 μl of DMEM containing 10% fetal calf serum was added. The plates were incubated for four hours at 37° C., 5% CO2 to allow induction of luciferase. Following induction, the media were removed, and the wells were washed once with 200 μl/well PBS. After the wash, 20 μl of a 1:5 dilution (in sterile water) of the stock Cell Culture Lysis Reagent (Luciferase Assay System, Promega Corp., Madison, Wis.) was added to each well, and the plates were incubated for 15 minutes at room temperature. The plates were transferred to a Labsystems Luminoskan microtiter luminometer (Labsystems Inc., Morton Grove, Ill.) which added 40 μl of Luciferase Assay Substrate (Luciferase Assay System, Promega), mixed the reaction for three seconds and integrated the luciferase signal for two seconds per well. The fold induction of luciferase for each compound was calculated as follows:
Fold induction=Induced signal-Uninduced signal Uninduced signal

[2] = target: endogenous hamster calcitonin receptor (hamster)
[3] = target: T1, recombinant human calcitonin receptor; assay: cell-based or functional assay

| Molecule | % SCT EC50, Hamster CT receptor [1] [%] | % SCT EC50 (CRE-linked luciferase induction) [2] [% SCT EC50] | % SCT EC50, Hamster CT receptor (× 10^3) ([1]; EC50 as % of SCT EC50, the factor × 10^3 is printed under the HCT value only) | % SCT EC50 (CRE-linked luciferase induction) [3] [% SCT EC50] |
| --- | --- | --- | --- | --- |
| ZP-10: nipecotic acid modified salmon calcitonin | 152 | – | – | – |
| ZP-3: 4-4'-biphenyldicarboxylic acid modified salmon calcitonin | 341 | – | – | – |
| human calcitonin (from UniProt P01258) (peptide) | – | 5900 | – | – |
| human calcitonin [HCT, reference compound] | – | – | 5.9 × 10^3% | – |
| ZP-2: 2,2'-bipyridine-5,5'-dicarboxylic acid modified salmon calcitonin | 125 | – | – | – |
| ZP-7: 2-Pyrazinoyl-modified salmon calcitonin | 155 | – | – | – |
| CSNLSTCVLGKLSQELHKLQTYPRTNTGSGTP (N-terminal amino group acylated with isonipecotic acid (amide linkage); C-terminal amide; disulfide Cys1-Cys7) [isonipecotic acid modified salmon calcitonin] | – | 106 | – | 146 |
| CSNLSTCVLGKLSQELHKLQTYPRTNTGSGTP (N-terminal amino group acylated with DL-pipecolinic acid (amide linkage); C-terminal amide; disulfide Cys1-Cys7) [DL-pipecolinic acid modified salmon calcitonin] | – | 147 | – | 230 |
| {nipecotic acid}-CSNLSTCVLGKLSQELHKLQTYPRTNTGSGTP-NH2 (disulfide 1-7) [nipecotic acid modified salmon calcitonin] | – | 152 | – | 243 |
| X1-CSNLSTCVLGKLSQELHKLQTYPRTNTGSGTP-NH2 (disulfide 1-7; SMILES CC(C)C[C@H](NC(=O)[C@H](CCCCN)NC(=O)CNC(=O)[C@H](CC(C)C)NC(=O)[C@@H](NC(=O)[C@@H]1CSSC[C@H](NC(=O)c2ccnc(-c3cc(C(=O)O)ccn3)c2)C(=O)N[C@@H](CO)C(=O)N[C@@H](CC(N)=O)C(=O)N[C@@H](CC(C)C)C(=O)N[C@@H](CO)C(=O)N[C@@H]([C@@H](C)O)C(=O)N1)C(C)C)C(=O)N[C@@H](CO)C(=O)N[C@@H](CCC(N)=O)C(=O)N[C@@H](CCC(=O)O)C(=O)N[C@@H](CC(C)C)C(=O)N[C@@H](Cc1c[nH]cn1)C(=O)N[C@@H](CCCCN)C(=O)N[C@@H](CC(C)C)C(=O)N[C@@H](CCC(N)=O)C(=O)N[C@H](C(=O)N[C@@H](Cc1ccc(O)cc1)C(=O)N1CCC[C@H]1C(=O)N[C@@H](CCCNC(=N)N)C(=O)N[C@H](C(=O)N[C@@H](CC(N)=O)C(=O)N[C@H](C(=O)NCC(=O)N[C@@H](CO)C(=O)NCC(=O)N[C@H](C(=O)N1CCC[C@H]1C(N)=O)[C@@H](C)O)[C@@H](C)O)[C@@H](C)O)[C@@H](C)O) [Bipyridine-modified Calcitonin] | – | 73 | – | 97 |
| X2-CSNLSTCVLGKLSQELHKLQTYPRTNTGSGTP-NH2 (disulfide 1-7; SMILES CC(C)C[C@H](NC(=O)[C@H](CCCCN)NC(=O)CNC(=O)[C@H](CC(C)C)NC(=O)[C@@H](NC(=O)[C@@H]1CSSC[C@H](NC(=O)c2ccc(-c3ccc(C(=O)O)cn3)nc2)C(=O)N[C@@H](CO)C(=O)N[C@@H](CC(N)=O)C(=O)N[C@@H](CC(C)C)C(=O)N[C@@H](CO)C(=O)N[C@@H]([C@@H](C)O)C(=O)N1)C(C)C)C(=O)N[C@@H](CO)C(=O)N[C@@H](CCC(N)=O)C(=O)N[C@@H](CCC(=O)O)C(=O)N[C@@H](CC(C)C)C(=O)N[C@@H](Cc1c[nH]cn1)C(=O)N[C@@H](CCCCN)C(=O)N[C@@H](CC(C)C)C(=O)N[C@@H](CCC(N)=O)C(=O)N[C@H](C(=O)N[C@@H](Cc1ccc(O)cc1)C(=O)N1CCC[C@H]1C(=O)N[C@@H](CCCNC(=N)N)C(=O)N[C@H](C(=O)N[C@@H](CC(N)=O)C(=O)N[C@H](C(=O)NCC(=O)N[C@@H](CO)C(=O)NCC(=O)N[C@H](C(=O)N1CCC[C@H]1C(N)=O)[C@@H](C)O)[C@@H](C)O)[C@@H](C)O)[C@@H](C)O) [2,2'-bipyridine-5,5'-dicarboxylic acid modified salmon calcitonin] | – | 125 | – | 199 |
| {Biphenyldicarbonyl(4,4')}-CSNLSTCVLGKLSQELHKLQTYPRTNTGSGTP-NH2 (disulfide 1-7; SMILES CC(C)C[C@H](NC(=O)[C@H](CCCCN)NC(=O)CNC(=O)[C@H](CC(C)C)NC(=O)[C@@H](NC(=O)[C@@H]1CSSC[C@H](NC(=O)c2ccc(-c3ccc(C(=O)O)cc3)cc2)C(=O)N[C@@H](CO)C(=O)N[C@@H](CC(N)=O)C(=O)N[C@@H](CC(C)C)C(=O)N[C@@H](CO)C(=O)N[C@@H]([C@@H](C)O)C(=O)N1)C(C)C)C(=O)N[C@@H](CO)C(=O)N[C@@H](CCC(N)=O)C(=O)N[C@@H](CCC(=O)O)C(=O)N[C@@H](CC(C)C)C(=O)N[C@@H](Cc1c[nH]cn1)C(=O)N[C@@H](CCCCN)C(=O)N[C@@H](CC(C)C)C(=O)N[C@@H](CCC(N)=O)C(=O)N[C@H](C(=O)N[C@@H](Cc1ccc(O)cc1)C(=O)N1CCC[C@H]1C(=O)N[C@@H](CCCNC(=N)N)C(=O)N[C@H](C(=O)N[C@@H](CC(N)=O)C(=O)N[C@H](C(=O)NCC(=O)N[C@@H](CO)C(=O)NCC(=O)N[C@H](C(=O)N1CCC[C@H]1C(N)=O)[C@@H](C)O)[C@@H](C)O)[C@@H](C)O)[C@@H](C)O) [4-4'-biphenyldicarboxylic acid modified salmon calcitonin] | – | 341 | – | 450 |
| Nicotinoyl-CSNLSTCVLGKLSQELHKLQTYPRTNTGSGTP-NH2 (disulfide 1-7; SMILES CC(C)C[C@H](NC(=O)[C@H](CCCCN)NC(=O)CNC(=O)[C@H](CC(C)C)NC(=O)[C@@H](NC(=O)[C@@H]1CSSC[C@H](NC(=O)c2cccnc2)C(=O)N[C@@H](CO)C(=O)N[C@@H](CC(N)=O)C(=O)N[C@@H](CC(C)C)C(=O)N[C@@H](CO)C(=O)N[C@@H]([C@@H](C)O)C(=O)N1)C(C)C)C(=O)N[C@@H](CO)C(=O)N[C@@H](CCC(N)=O)C(=O)N[C@@H](CCC(=O)O)C(=O)N[C@@H](CC(C)C)C(=O)N[C@@H](Cc1c[nH]cn1)C(=O)N[C@@H](CCCCN)C(=O)N[C@@H](CC(C)C)C(=O)N[C@@H](CCC(N)=O)C(=O)N[C@H](C(=O)N[C@@H](Cc1ccc(O)cc1)C(=O)N1CCC[C@H]1C(=O)N[C@@H](CCCNC(=N)N)C(=O)N[C@H](C(=O)N[C@@H](CC(N)=O)C(=O)N[C@H](C(=O)NCC(=O)N[C@@H](CO)C(=O)NCC(=O)N[C@H](C(=O)N1CCC[C@H]1C(N)=O)[C@@H](C)O)[C@@H](C)O)[C@@H](C)O)[C@@H](C)O) [Nicotinic acid-modified Calcitonin] | – | 71 | – | 112 |
| {picolinic acid}-CSNLSTCVLGKLSQELHKLQTYPRTNTGSGTP-NH2 (disulfide 1-7) [Pycolinyl-modified Calcitonin] | – | 98 | – | 140 |
| Pyrazinecarbonyl-CSNLSTCVLGKLSQELHKLQTYPRTNTGSGTP-NH2 (disulfide 1-7; SMILES CC(C)C[C@H](NC(=O)[C@H](CCCCN)NC(=O)CNC(=O)[C@H](CC(C)C)NC(=O)[C@@H](NC(=O)[C@@H]1CSSC[C@H](NC(=O)c2cnccn2)C(=O)N[C@@H](CO)C(=O)N[C@@H](CC(N)=O)C(=O)N[C@@H](CC(C)C)C(=O)N[C@@H](CO)C(=O)N[C@@H]([C@@H](C)O)C(=O)N1)C(C)C)C(=O)N[C@@H](CO)C(=O)N[C@@H](CCC(N)=O)C(=O)N[C@@H](CCC(=O)O)C(=O)N[C@@H](CC(C)C)C(=O)N[C@@H](Cc1c[nH]cn1)C(=O)N[C@@H](CCCCN)C(=O)N[C@@H](CC(C)C)C(=O)N[C@@H](CCC(N)=O)C(=O)N[C@H](C(=O)N[C@@H](Cc1ccc(O)cc1)C(=O)N1CCC[C@H]1C(=O)N[C@@H](CCCNC(=N)N)C(=O)N[C@H](C(=O)N[C@@H](CC(N)=O)C(=O)N[C@H](C(=O)NCC(=O)N[C@@H](CO)C(=O)NCC(=O)N[C@H](C(=O)N1CCC[C@H]1C(N)=O)[C@@H](C)O)[C@@H](C)O)[C@@H](C)O)[C@@H](C)O) [2-Pyrazinoyl-modified calcitonin] | – | 155 | – | 158 |
